The supplement of paper PMC10065799, “High-throughput profiling of sequence recognition by tyrosine kinases and SH2 domains using bacterial peptide display” (eLife, 2023)

Tests used:
AncSZ = test: phosphorylation enrichment, bacterial display (enrichment ratio); higher = better substrate or ligand; peptides without Tyr show the background
EPHB1 = EPHB1 (UniProt P54762); test: as above
EPHB2 = EPHB2 (UniProt P29323); test: as above
FGFR1 = FGFR1 (UniProt P11362); test: as above
FGFR3 = FGFR3 (UniProt P22607); test: as above
FGFR3, sequence (P22607 whole entry, looked up): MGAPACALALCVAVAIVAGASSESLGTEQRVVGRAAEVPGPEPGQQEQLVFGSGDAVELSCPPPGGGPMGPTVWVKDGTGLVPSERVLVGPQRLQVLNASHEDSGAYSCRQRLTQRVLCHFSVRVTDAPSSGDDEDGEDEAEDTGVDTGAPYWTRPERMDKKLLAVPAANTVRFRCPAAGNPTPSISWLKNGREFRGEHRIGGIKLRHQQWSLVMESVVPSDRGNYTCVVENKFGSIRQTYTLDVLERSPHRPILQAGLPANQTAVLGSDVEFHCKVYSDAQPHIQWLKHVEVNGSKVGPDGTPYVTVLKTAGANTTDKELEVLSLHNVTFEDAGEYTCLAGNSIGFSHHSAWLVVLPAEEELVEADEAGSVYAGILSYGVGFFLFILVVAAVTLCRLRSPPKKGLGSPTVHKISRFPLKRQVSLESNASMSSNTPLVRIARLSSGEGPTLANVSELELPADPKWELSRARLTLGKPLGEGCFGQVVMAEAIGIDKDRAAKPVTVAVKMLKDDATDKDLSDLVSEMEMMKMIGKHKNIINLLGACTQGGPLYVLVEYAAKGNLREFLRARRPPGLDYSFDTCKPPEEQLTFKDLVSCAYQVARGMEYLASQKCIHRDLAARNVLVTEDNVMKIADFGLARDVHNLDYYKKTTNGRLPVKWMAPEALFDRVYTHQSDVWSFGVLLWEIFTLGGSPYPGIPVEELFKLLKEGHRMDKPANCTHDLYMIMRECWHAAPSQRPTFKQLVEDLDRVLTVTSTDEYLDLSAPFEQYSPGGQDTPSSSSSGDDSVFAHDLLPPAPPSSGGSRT

Fer (mouse) = test: as above
Fes = Fes (UniProt P07332); test: as above
Fes, sequence (P07332 whole entry, looked up): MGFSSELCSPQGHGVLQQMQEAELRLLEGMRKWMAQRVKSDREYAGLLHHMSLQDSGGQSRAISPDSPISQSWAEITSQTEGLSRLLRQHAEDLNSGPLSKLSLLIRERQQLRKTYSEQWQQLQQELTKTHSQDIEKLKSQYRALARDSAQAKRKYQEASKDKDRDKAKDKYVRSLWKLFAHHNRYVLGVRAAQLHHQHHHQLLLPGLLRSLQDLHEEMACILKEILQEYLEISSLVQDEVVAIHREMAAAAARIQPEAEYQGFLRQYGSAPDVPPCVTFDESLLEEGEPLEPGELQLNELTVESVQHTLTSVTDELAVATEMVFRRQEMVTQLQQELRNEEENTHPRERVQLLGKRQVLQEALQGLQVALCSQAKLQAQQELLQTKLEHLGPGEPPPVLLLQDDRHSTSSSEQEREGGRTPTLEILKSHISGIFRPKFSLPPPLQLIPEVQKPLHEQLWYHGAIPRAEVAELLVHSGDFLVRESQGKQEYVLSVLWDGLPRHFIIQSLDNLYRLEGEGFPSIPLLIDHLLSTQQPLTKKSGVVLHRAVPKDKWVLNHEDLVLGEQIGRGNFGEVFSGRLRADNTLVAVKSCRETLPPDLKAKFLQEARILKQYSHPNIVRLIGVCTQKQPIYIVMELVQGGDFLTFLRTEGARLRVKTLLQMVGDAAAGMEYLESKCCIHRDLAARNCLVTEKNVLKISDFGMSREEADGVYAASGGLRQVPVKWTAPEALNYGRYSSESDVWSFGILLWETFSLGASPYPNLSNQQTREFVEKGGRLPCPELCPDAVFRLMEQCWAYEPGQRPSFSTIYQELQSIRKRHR

Fyn = Fyn (UniProt P06241); test: as above
Hck = Hck (UniProt P08631); test: as above
Jak2 = Jak2 (UniProt O60674); test: as above
Jak2, sequence (O60674 whole entry, looked up): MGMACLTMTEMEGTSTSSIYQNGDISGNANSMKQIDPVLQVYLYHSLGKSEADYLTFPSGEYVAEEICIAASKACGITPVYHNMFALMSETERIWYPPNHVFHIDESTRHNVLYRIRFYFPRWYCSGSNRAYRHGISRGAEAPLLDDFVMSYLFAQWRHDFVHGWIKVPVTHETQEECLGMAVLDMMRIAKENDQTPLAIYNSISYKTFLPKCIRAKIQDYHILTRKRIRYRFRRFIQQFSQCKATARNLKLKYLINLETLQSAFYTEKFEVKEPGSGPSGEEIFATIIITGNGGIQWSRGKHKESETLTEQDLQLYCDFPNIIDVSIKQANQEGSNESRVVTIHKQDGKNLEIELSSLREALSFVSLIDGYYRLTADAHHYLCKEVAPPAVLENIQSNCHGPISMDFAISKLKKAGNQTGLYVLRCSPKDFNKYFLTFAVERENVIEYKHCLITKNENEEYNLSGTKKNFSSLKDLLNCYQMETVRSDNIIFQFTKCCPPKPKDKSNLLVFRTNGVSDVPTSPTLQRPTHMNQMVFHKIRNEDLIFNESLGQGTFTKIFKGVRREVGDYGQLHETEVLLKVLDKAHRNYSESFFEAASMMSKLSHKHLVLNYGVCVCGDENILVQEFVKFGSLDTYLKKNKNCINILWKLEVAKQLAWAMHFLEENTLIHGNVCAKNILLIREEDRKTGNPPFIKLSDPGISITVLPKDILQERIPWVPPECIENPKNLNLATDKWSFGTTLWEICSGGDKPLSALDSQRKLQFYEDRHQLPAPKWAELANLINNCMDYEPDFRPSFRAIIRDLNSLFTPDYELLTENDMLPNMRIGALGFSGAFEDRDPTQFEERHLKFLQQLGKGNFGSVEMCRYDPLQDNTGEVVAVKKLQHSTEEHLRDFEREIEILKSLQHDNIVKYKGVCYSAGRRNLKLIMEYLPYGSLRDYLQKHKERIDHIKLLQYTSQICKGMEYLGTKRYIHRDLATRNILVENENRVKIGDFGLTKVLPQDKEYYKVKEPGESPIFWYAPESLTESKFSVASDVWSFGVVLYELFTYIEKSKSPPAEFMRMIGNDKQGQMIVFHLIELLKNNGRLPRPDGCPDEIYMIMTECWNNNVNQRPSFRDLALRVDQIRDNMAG

MERTK = MERTK (UniProt Q12866); test: as above
MERTK, sequence (Q12866 whole entry, looked up): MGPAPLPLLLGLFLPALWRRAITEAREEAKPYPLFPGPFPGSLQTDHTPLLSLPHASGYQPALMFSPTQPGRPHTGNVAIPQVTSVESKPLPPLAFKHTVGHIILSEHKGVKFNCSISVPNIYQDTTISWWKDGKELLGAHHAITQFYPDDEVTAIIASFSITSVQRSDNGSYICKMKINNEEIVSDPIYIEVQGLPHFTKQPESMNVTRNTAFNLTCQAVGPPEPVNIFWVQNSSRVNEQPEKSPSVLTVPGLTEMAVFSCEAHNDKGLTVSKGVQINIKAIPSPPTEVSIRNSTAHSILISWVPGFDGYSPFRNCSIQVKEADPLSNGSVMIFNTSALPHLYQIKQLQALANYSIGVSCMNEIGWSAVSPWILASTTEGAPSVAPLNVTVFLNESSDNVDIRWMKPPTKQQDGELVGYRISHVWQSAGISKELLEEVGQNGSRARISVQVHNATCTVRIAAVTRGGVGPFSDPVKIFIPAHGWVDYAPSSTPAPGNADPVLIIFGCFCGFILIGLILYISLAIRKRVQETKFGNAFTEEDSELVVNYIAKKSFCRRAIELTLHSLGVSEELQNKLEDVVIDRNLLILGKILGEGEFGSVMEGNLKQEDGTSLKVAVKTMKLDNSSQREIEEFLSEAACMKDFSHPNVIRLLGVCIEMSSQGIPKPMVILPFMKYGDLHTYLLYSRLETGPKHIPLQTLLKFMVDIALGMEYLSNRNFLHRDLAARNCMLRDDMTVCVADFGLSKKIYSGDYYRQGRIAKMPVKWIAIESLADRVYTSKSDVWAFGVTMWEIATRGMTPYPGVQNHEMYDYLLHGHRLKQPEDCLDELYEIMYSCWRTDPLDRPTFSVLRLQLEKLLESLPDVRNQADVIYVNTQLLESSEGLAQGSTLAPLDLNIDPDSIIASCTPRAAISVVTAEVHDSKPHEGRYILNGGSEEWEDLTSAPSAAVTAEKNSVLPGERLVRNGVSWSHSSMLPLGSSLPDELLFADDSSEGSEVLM

c-Abl (mouse) = test: as above
c-Src = test: as above
Grb2 SH2 = Grb2 SH2 (UniProt P62993); test: SH2 binding enrichment of the phosphorylated peptide, bacterial display (enrichment ratio); higher = better substrate or ligand; peptides without Tyr show the background
Grb2 SH2, sequence (P62993 whole entry, looked up): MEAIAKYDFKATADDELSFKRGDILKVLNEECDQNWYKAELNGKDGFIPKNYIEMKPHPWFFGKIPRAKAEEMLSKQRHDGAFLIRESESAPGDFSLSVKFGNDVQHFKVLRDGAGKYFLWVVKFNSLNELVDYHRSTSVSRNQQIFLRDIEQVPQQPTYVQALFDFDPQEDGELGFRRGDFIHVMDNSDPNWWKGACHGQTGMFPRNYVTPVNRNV

SHP2-C SH2 = test: as above
c-Src SH2 = test: as above
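Wherever SH2 binding enrichment of the phosphorylated peptide, bacterial display is given: peptide library displayed on the E. coli surface as eCPX fusions, selected cells deep-sequenced, score is each peptide's frequency after selection divided by its frequency in the input.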
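Wherever phosphorylation enrichment, bacterial display is given: 11-residue human phosphosite peptides and single-mutation variants displayed on the E. coli surface, counted by deep sequencing, each peptide's frequency after selection divided by its frequency in the unselected input library; frequency after pTyr selection over input frequency; kinase dosed for 20-30% of maximal phosphorylation in three min.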

FGFR1, sequence (P11362 whole entry, looked up): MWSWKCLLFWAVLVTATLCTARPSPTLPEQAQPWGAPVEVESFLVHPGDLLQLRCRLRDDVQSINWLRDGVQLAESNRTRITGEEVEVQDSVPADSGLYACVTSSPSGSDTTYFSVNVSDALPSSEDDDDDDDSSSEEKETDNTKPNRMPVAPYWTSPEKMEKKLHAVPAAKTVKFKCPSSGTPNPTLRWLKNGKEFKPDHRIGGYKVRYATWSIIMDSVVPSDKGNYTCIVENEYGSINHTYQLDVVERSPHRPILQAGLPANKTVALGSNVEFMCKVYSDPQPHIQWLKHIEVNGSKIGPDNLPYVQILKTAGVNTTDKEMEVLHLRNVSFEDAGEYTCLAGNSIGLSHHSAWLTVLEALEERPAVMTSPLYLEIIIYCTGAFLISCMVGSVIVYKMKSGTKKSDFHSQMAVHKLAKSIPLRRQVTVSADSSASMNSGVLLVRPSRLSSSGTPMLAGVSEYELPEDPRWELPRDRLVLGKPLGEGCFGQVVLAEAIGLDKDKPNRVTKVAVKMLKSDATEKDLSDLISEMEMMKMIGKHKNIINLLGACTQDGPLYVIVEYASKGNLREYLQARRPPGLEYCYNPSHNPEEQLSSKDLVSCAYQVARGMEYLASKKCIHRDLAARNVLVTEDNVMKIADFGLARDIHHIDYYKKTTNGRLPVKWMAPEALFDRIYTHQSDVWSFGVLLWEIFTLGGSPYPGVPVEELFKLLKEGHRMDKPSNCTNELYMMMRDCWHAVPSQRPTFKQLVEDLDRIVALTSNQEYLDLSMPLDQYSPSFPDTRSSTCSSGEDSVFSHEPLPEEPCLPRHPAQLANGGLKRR

Row | Sequence | phosphorylation enrichment (AncSZ) | phosphorylation enrichment (EPHB1) | phosphorylation enrichment (EPHB2) | phosphorylation enrichment (FGFR1) | phosphorylation enrichment (FGFR3) | phosphorylation enrichment (Fer (mouse)) | phosphorylation enrichment (Fes) | phosphorylation enrichment (Fyn) | phosphorylation enrichment (Hck) | phosphorylation enrichment (Jak2) | phosphorylation enrichment (MERTK) | phosphorylation enrichment (c-Abl (mouse)) | phosphorylation enrichment (c-Src) | SH2 binding enrichment (Grb2 SH2) | SH2 binding enrichment (SHP2-C SH2) | SH2 binding enrichment (c-Src SH2)
1 | CTTIHYNYTCN [TP53_Y234_M237T] | 0.756 | 0.492 | 0.556 | 0.47 | 0.624 | 0.476 | 0.837 | 0.445 | 0.416 | 0.726 | 0.403 | 0.585 | 0.414 | 1.47 | 1.86 | 3.29
2 | CTTIPYNYMCN [TP53_Y234_H233P] | 1.18 | 0.528 | 0.509 | 0.543 | 0.605 | 0.424 | 0.863 | 0.47 | 0.433 | 0.791 | 0.418 | 0.615 | 0.55 | 0.913 | 1.1 | 5.64
3 | DAICYYRMENA [NPHS2_Y195] | 2.23 | 0.866 | 0.795 | 7.73 | 6.5 | 0.736 | 1.44 | 1.34 | 1.11 | 6.63 | 1.28 | 1.03 | 3.12 | 0.952 | 0.799 | 0.641
4 | DASAVYLRDFQ [PLCG2_Y242_H244R] | 0.769 | 0.506 | 0.492 | 0.425 | 0.58 | 0.452 | 0.963 | 0.562 | 0.544 | 0.894 | 0.675 | 0.986 | 0.693 | 0.95 | 0.553 | 0.471
5 | DDKEYYSVHNK [MET_Y1235_Y1230D] | 1.93 | 0.563 | 0.629 | 1.6 | 1.51 | 0.603 | 1.06 | 0.529 | 0.791 | 1.17 | 0.405 | 0.942 | 0.874 | 0.813 | 0.961 | 0.461
6 | DDKQPYEKKAA [HMGB1_Y144] | 0.988 | 0.585 | 0.464 | 0.493 | 0.629 | 0.475 | 0.947 | 0.518 | 0.536 | 0.851 | 0.415 | 0.539 | 0.436 | 0.964 | 0.741 | 0.606
7 | DDSNLYINVKL [MTHFD1_Y52] | 1.45 | 0.777 | 0.804 | 0.702 | 0.994 | 0.751 | 1.63 | 0.443 | 0.607 | 1.56 | 0.424 | 1.08 | 0.442 | 0.824 | 0.496 | 0.457
8 | DEDFLYREELA [POR_Y575_YF] | 1.17 | 0.506 | 0.594 | 0.536 | 0.725 | 0.544 | 1.21 | 0.443 | 0.44 | 1.15 | 0.489 | 0.763 | 0.487 | 0.916 | 0.793 | 0.448
9 | DEENFYQGSME [ASCC1_Y36_D34N] | 1.3 | 0.588 | 0.604 | 0.465 | 0.647 | 0.624 | 1.36 | 0.498 | 0.7 | 1.05 | 0.517 | 0.821 | 0.733 | 0.891 | 0.701 | 0.556
10 | DEQKKYYNAMK [SCN5A_Y1494_E1489D] | 0.874 | 0.613 | 0.543 | 0.575 | 0.508 | 0.35 | 0.772 | 0.442 | 0.458 | 0.531 | 0.572 | 0.594 | 0.39 | 1.01 | 0.711 | 0.621
11 | DFCDLYGGEKF [PTPN11_Y66_Y63C_YF] | 1.03 | 0.511 | 0.564 | 0.575 | 0.832 | 0.672 | 1.33 | 1.35 | 1.76 | 0.908 | 0.54 | 0.833 | 2.78 | 1.02 | 0.75 | 0.706
12 | DFKIIYIVPMR [SNRNP200_Y540_A542V] | 1.09 | 0.525 | 0.532 | 0.55 | 0.653 | 0.487 | 1.11 | 0.412 | 0.382 | 0.952 | 0.366 | 1.74 | 0.42 | 1.67 | 2.13 | 1.08
13 | DFPIGYPSFLA [TBCK_Y153_YF] | 0.79 | 0.477 | 0.503 | 0.578 | 0.631 | 0.459 | 1.07 | 0.517 | 0.481 | 0.748 | 0.37 | 0.594 | 0.535 | 0.635 | 0.578 | 0.364
14 | DGTGRYLCNAC [GATA5_Y208_H207R] | 0.552 | 0.4 | 0.4 | 0.475 | 0.522 | 0.362 | 0.573 | 0.424 | 0.375 | 0.455 | 0.383 | 0.523 | 0.349 | 0.976 | 0.644 | 0.487
15 | DHAGTYGLGDR [MAPT_Y18] | 0.429 | 0.363 | 0.304 | 0.406 | 0.45 | 0.3 | 0.576 | 0.48 | 0.43 | 0.507 | 0.352 | 0.442 | 0.533 | 0.797 | 0.783 | 0.588
16 | DIMDLYNQPEP [IL36A_Y96] | 1.5 | 0.547 | 0.602 | 0.491 | 0.688 | 0.66 | 1.21 | 0.69 | 0.817 | 1.55 | 0.481 | 0.852 | 1.06 | 0.879 | 0.597 | 0.557
